This is an account of results in article PMC4705653.

One experiment concerns the target Sld3 (UniProt P53135). As to the kind of experiment: anti-Mcm2 co-IP, Sld3 blot. Conditions: reference: wild-type mcm2; sites S164,S170.
Experiment [1] concerns the target GST-Mcm10 (budding yeast) (UniProt P32354). As to the kind of experiment: pull-down; 30 pmol GST-tagged protein on Glutathione Sepharose, varying concentrations of 32P-labelled PKA-tagged protein in solution; GST binding buffer (40 mM Tris–HCl pH 7.5, 100 mM NaCl, 0.1 mM EDTA, 10% glycerol, 0.1% Triton X-100, 1 mM DTT, 0.1 mg/ml BSA), 100 μl, 30°C, 10 min; SDS-PAGE and phosphorimaging; in some panels with 5 mM ATP or ATPγS, or with a third labelled protein (Mcm10, Sld3) added.

Bounds are passed on as bounds.

Chain of GST-Mcm10 (budding yeast) (P32354 whole entry): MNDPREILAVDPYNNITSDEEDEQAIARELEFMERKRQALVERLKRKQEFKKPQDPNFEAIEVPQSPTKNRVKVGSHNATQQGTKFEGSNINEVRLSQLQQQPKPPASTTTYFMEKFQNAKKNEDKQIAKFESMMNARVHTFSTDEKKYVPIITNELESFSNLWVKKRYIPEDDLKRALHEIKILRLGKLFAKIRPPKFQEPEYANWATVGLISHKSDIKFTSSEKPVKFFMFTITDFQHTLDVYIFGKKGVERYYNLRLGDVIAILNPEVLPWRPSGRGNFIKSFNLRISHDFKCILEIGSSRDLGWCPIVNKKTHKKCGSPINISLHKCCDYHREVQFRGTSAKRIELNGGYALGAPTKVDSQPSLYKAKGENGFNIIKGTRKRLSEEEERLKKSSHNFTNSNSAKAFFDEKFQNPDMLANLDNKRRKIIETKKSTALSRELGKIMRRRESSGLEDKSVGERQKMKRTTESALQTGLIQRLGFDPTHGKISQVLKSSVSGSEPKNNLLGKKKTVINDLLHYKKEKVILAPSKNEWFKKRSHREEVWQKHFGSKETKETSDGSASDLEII

On to “Mcm2 (from UniProt P29469) mcm2-2A (S164A S170A)”, for which the “binding against the reference” value in the experiment with Sld3 was “lost”.

The substance “PKA-Mcm2–7 complex (radiolabeled, wild type), P29469 1-868; P24279 1-971; P30665 1-933; P29496 1-775; P53091 1-1017; P38132 1-845” registered a signal relative to GST alone in experiment [1] of more than 10 times.
